Results reported in patent US7402575B2, “Methods of treating inflammation” (priority 2003, dated 2008).

Molecular target: T1, lysozyme c (Lzm-S) (Canis lupus familiaris, UniProt P81709)
T1 construct: Lzm-S was purified in a manner described by Grobler et al (14); from tissue
T1 sequence (P81709 1-130): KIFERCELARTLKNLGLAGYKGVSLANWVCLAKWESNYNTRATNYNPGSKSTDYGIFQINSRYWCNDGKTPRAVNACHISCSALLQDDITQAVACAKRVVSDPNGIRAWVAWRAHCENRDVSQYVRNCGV
Assay: Effect of enzyme treatment (of Lzm-S or of the trabeculae) on Lzm-S's depressant effect in right ventricular trabecular preparation
Type: cell-based, dog
Procedure: In subsequent experiments, the objective was to determine whether pretreatment of Lzm-S with the proteolytic enzyme proteinase-K reduced the extent to which myocardial depression developed in the in vitro preparation (7). Proteinase-K (attached to beaded agarose; Sigma Chemical, St Louis, Mo.) was added to the pure Lzm-S preparation. The effects of proteinase-K treated and nontreated Lzm-S on isometric tension were compared between the samples. Since proteinase-K is a non-specific proteolytic enzyme, a specific competitive inhibitor of lysozyme, TAC (chitotriose) was subsequently examined to determine whether it prevented the depression in isometric tension observed in the in vitro preparation (16,17).
Regardless of the type of carbohydrate structure to which Lzm-S may bind, it is possible to deglycosylate the carbohydrate structure by means of exoglycosidases in which a specific sugar residue is removed from the terminal end of the carbohydrate tree (47). […] In group 2, the trabeculae were initially bathed in sialidase (60 μl; 5 U/ml) for two hours to remove any N-acetylneuramic acid (NeuNAc) residues, after which the effect of Lzm-S was determined (all kits from Prozyme, San Leandro, Calif.; kit GE 23; Sialidase A). […]

- Effect of enzyme treatment on Lzm-S's depressant activity: reduction in depressant activity
B1: Proteinase K: nonspecific proteolytic enzyme attached to beaded agarose (protein, UniProt P06873 106-384, looked up)
Proteinase K: AAQTNAPWGLARISSTSPGTSTYYYDESAGQGSCVYVIDTGIEASHPEFEGRAQMVKTYYYSSRDGNGHGTHCAGTVGSRTYGVAKKTQLFGVKVLDDNGSGQYSTIIAGMDFVASDKNNRNCPKGVVASLSLGGGYSSSVNSAAARLQSSGVMVAVAAGNNNADARNYSPASEPSVCTVGASDRYDRRSSFSNYGSVLDIFGPGTSILSTWIGGSTRSISGTSMATPHVAGLAAYLMTLGKTTAASACRYIADTANKGDLSNIPFGTVNLLAYNNYQA
modifications: attached to agarose beads
